For one test, the target named is T1, VR-OAC (Rattus norvegicus, UniProt Q9ERZ8, M680K).
T1 construct: The complete cDNAs of rat VR-OAC, chicken VR-OAC, and rat VR1 were subcloned into the eukaryotic expression vector pcDNA3.1; expressed in transfected cells; host or cells: CHO-K1 (stably or transiently transfected, pcDNA3.1)
The experiment in a line: Ca2+ imaging (fluo-4) of CHO cells transfected with VR-OAC or variants. The test is classed as cell-based, rat and chicken. As to conditions: tissue culture cells. From the text:
To confirm that VR-OAC constitutes an ion channel and to determine the stimulus that gates it, we expressed the rat and chicken proteins in stably transfected Chinese hamster ovary (CHO) cells. Untransfected CHO cells and a line stably transfected with a VR1-expressing plasmid served as controls. We loaded VR-OAC-expressing cells with the Ca^2+ indicator fluo-4 AM and used conventional and confocal icroscopy to monitor changes in fluorescence, which reflected alterations in the ntracellular Ca^2+ concentration.
The complete cDNAs of rat VR-OAC, chicken VR-OAC, and rat VR1 were subcloned into the eukaryotic expression vector pcDNA3.1 (Invitrogen, Carlsbad, Calif.). CHO-K1 cells (ATCC, Manassas, Va.) were transfected with these vectors and selected with G418 (Life Technology, Gaithersburg, Md.). Stable clones that expressed the mRNAs were identified by Northern blot analysis and, for VR1, by response to ligand.
For Ca2+ imaging, cells were loaded for 30 min at room temperature in […] fluo-4 AM ester (Molecular Probes, Eugene, Oreg.) in isoosmotic Hille's saline solution (130 mM Na^+, 2.5 mM K^+, 2 mM Ca2+, 1 mM Mg2+, 138.5 mM Cl−, 20 mM D-glucose, and 10 mM HEPES at pH 7.3; Babcock et al., 1997) containing 2 mM probenecid. The cells were then washed and incubated for 15 min at 30° C. to promote deacetylation of internalized fluo-4 AM ester.
Confocal analysis was performed with an MRC-1024ES system (Bio-Rad, Hercules, Calif.) mounted on an inverted microscope (Zeiss Axiovert 135TV, Carl Zeiss, Jena, Germany). Confocal image series were collected using Lasersharp software (BioRad) running on a Poweredge 2300 computer (Dell Computer, Round Rock, Tex.). Images were also recorded with a cooled digital camera (Micromax, Princeton Instruments Inc., Princeton, N.J.) atop a Zeiss Axioplan microscope. These images were analyzed using IPLab software (Scanalytics Inc., Fairfax, Va.). Analysis of single-frame or single-cell integrated signal density was performed on Macintosh computers running NIH Image software (version 1.61; O'Neill et al., 1989).
Solutions with different osmotic strengths were created by adding water or mannitol to Hille's saline solution. Unless otherwise noted, the Ca2+ concentration of all solutions was held constant at 2 mM. The resultant osmolalities were verified with a vapor-pressure osmometer (Vapro 5520, Wescor Inc., Logan, Utah). The test solutions included a graded series of hypotonic solutions (with 220 mmol kg-1 the lowest osmolality), a hypertonic solution (330 mmol kg-1), isotonic solutions at 295 mmol kg-1 with graded concentrations of Na+ (with 50 mM the lowest concentration), and hypotonic solutions containing 100 μM, 250 μM, and 500 μM GdCl3. Ligands used for stimulation were resiniferatoxin (Sigma Chemicals, St. Louis, Mo.) at 0.2 μM and 5 μM and anandamide (Cayman Chemical, Ann Arbor, Mich.) at 5 μM and 25 μM. To test whether VR-OAC is directly gated by increases in temperature, we exposed dishes containing fluo-4-loaded cells to temperatures ranging from room temperature to 30° C., 37° C., 40° C., 45° C., 50° C., and 55° C. Images were acquired during the thermal stimulus series at intervals of 60 s for up to 10 min after the start of heating. A series of calibration experiments confirmed that this interval ensured proper thermal equilibration. A similar procedure was used to test the response to hypotonicity at various temperatures.

The subject of another test is C. elegans mutant osm-9. The experiment in a line: Transgenic rescue of C. elegans mutant osm-9 (osmotic avoidance, nose touch, odorant avoidance). It counts as in vivo, Caenorhabditis elegans. As to conditions: expressed in ASH neurons (sra6 promotor) of osm-9 worms. As to the method: The coding region of the rat VR-OAC cDNA was cloned into the C. elegans expression vector pPD49.26 that contained the sra6 promotor. This promotor directs expression in the ASH and ASI neurons. Purified DNA was injected into the gonad of hermaphroditic worms, strain N2, together with the marker gene elt-2/green fluorescent protein (GFP) which directs expression of GFP in C. elegans intestinal cells. Transgenic offspring could be identified by GFP fluorescence, and VR-OAC transgenic lines of worms were generated. Likewise, several transgenic lines of worms were established and maintained on an osm-9 (ky-10 allele) genetic background. In these worms, an osmotic avoidance in response to hyperosmotic stimuli was clearly present, as was sensitivity to nose touch (FIGS. 15A and 15B). The avoidance reactions were assayed on single animals as previously described^34. Odorant avoidance in response to octanone was not present. […] In order to confirm that the observed rescue is mediated by the ASH neuron, both ASH neurons were laser ablated in osm-9/VR-OAC transgenic (tg) worms. This procedure completely abolished rescue (FIGS. 15A and 15B). In order to visualize subcellular localization of the VR-OACtg in the ASH neuron, GFP was tagged to the C-terminus of VR-OAC. The tagged protein could be localized to the cilia of the ASH neuron in the worm nose where fluorescence was stronger than in any other part of this neuron. Rescue was not impaired in VR-OAC/GFPtg osm-9 worms (FIGS. 15A and 15B).
In order to understand better the specificity of the observed rescue, VR-OACtg worms were crossed to C. elegans mutants which genetically define the alternate mechanosensory pathway. VR-OACtg worms of the following mutant lines were generated: ocr-2, odr-3, glr-1, osm-10 and double-mutants of the former with osm-9. These lines were tested for osmotic avoidance, nose touch and odorant avoidance. […] In another control experiment addressing the specificity of the observed rescue, we expressed rat VR1 under the control of the sra6 promotor in ASH neurons of wild type and osm-9 worms. No rescue was observed. However, in osm-9 as well as in wild type worms tg for VR1 there was a strong avoidance response to vanilloids which was absent in non-tg worms.
Next, we wanted to use the transgenic rescue of osm-9 by VR-OAC as an in-vivo model in order to better understand structure-function relationships of VR-OAC. Gross deletions were constructed lacking either the N-terminal intracellular domain (aminoacid [AA] 1-410 of VR-OAC), the C-terminal intracellular domain (AA 741-781 of VR-OAC) or both. Three lines of worms were established for each of the gross deletions. The line with the most pronounced rescue as an indication of highest expression level of tg was investigated more in depth. […] The N-terminus and the C-terminus thus appear dispensable for the response to osmotic and mechanical stimuli, and, most likely, for proper intracellular transport in the ASH neuron. In addition to these gross deletions, we wanted to learn more about the structure-function relationship of strategically positioned single amino acid exchanges in the pore-loop domain of VR-OAC. As for the gross deletions, three lines of worms were generated for each point mutation. […]

T1 sequence (Q9ERZ8 whole entry M680K): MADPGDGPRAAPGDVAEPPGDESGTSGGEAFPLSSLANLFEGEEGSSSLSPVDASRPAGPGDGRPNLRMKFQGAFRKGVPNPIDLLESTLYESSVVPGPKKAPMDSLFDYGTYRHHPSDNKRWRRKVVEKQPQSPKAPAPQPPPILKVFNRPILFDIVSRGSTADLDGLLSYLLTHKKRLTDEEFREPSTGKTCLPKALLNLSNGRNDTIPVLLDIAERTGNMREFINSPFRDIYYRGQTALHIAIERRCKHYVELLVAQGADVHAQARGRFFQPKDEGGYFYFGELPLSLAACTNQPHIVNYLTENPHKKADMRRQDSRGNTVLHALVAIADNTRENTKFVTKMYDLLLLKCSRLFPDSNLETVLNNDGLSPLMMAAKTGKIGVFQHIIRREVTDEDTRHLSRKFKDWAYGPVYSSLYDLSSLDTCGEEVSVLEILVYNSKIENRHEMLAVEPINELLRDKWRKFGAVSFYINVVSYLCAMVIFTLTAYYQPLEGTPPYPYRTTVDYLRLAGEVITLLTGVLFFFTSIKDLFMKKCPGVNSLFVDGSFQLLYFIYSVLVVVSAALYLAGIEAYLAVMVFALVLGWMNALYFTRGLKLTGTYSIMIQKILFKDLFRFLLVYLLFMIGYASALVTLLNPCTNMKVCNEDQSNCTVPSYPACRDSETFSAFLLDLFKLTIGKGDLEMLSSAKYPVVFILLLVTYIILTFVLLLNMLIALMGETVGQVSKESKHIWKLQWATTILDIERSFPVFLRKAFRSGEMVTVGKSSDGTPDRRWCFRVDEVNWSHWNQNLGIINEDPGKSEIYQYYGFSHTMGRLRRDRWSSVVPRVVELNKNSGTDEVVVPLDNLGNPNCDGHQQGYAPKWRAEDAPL

Regarding “M680K: VR-OAC mutation of Lysine for Methionine at amino acid 680”, the “function in tissue culture cells” value with VR-OAC is on record as “totally lacked function”. Further, the “rescue of lack of osmotic avoidance and lack of response to nose touch” value in the test on C. elegans mutant osm-9 is reported as “strikingly reduce rescue”.

Source of the values: US20030013650A1, “VR-OAC, an osomotically activated channel protein, nucleic acids encoding it, and uses thereof” (The Rockefeller University, priority 2000, published 2003).
